Source: US20150086555A1

B1: TCN-546 (5089_L08) (antibody, V domains shown)
VH: QVQLQQWGAGLLKPSETLSLTCGVYGGSLSDYYWSWIRQPPGKGLEWIGEINHSGGTNYNPSLKRRVTISVDTSKKQFSLKMNSVTAADTAVYYCARGTDPDTEVYCRAGNCAAFDFWGQGTLVTVSS
VL: EIVLTQSPGTLSLSPGERATLSCRASHFVIGRAVAWYQQKPGQAPRLLIYGASSRATGIPDRFSGSGSGTDFTLTISRLETEDFAVFYCQHYGSSPRYAFGQGTKLEIK
B2: TCN-543 (5081_G23) (antibody, V domains shown)
VH: QVHLVQSGAEVRKPGDSVKVSCKTSGYTFSTYPVAWVRQVPGQGLEWMGWISTYNGNTNFAQNFQGRVTLTTDTTTNTAYMEVRSLKFDDTAVYYCARVEGSYRDFWNNQNRFDPWGQGTLVTVSS
VL: SYVLTQPPSVSVAPGQTARISCGGSNIGGKSVHWYQQKPGQAPVLVVYDDSGRPSGIPERFSGSNSGDTATLTISRVEAGDEADYFCQVWDNFGGVFGTGTKVTVL
B3: TCN-538 (3206_O17) (antibody, V domains shown)
VH: QITLKESGPTLVKPTQTLTLTCVFSGFSLSITGVRVGWIRQPPGKALEWLALISWDDEKHYSPSLQSRLTITKDTSKNQVVLTMTNLDPVDTATYYCARSTDRGHVLRYFGWMLPGDAFDVWGQGTMVTVSS
VL: DIVMTQSPDFLPVSLGERATINCKSSQRVLYSSNNKNYLAWYQLKPGQPPKLIIYWASTRESGVPDRFSGSGSGTEFTLTISSLQAEDVAVYYCQQYYSRPYTFGQGTKLEIK
B4: TCN-537 (3194_D21) (antibody, V domains shown)
VH: QVQLQQWGSGLLKPSETLSLTCAVYGGSFRDDYWTWIRQPPGKGLEWIGEINHSGRTNYNPSLKSRVTISVDTSLKQFSLKVISVTAADTAVYYCARGTSHVSRYFDWLPPTNWFDPWGQGTQVTVSS
VL: DIVLTQSPGTLSLSPGERATLSCRASQSVSSSYLAWYQQKPGQAPRLVMYGAATRATGIPDRFSGSGSGPDFTLTISRLEPEDFAMYYCQQYGNSPITFGQGTRLEIK
B5: TCN-540 (5060_F05) (antibody, V domains shown)
VH: QVQLVQSGGGVVQPGRSLRLSCAASGFTFSSYAMHWVRQAPGKGLEWVAIISYDGNDQYYTDSVKGRFTISRDSSKVYLQMHRLRPEDTAVYYCAKEFETSGYFHGSFDYWGQGILVTVSS
VL: QSALTQPASVSGSPGQSITISCTGTSSDVGGYNYVSWYQQHPGKAPKLLIYEVTNWPSGVSNRFSGSKSGNTASLTISGLQAEDEADYYCSSYAGSSTWVFGGGTRVTVL
B6: TCN-545 (5082_I15) (antibody, V domains shown)
VH: QVQLQQWGAGLLKPSETLSLSCAVFGGSFSDYYWTWIRQPPGKGLEWIGEIKHSGRTNYNPSLESRVTISVDTSKNQFSLKLSSVTAADTAIYYCARGTDPDTEGYCRSGSCSAFDFWGQGTLVTVSS
VL: EIVLTQSPGTLSLSPGERATLSCRASHFVNYRSLAWYQQTPGQVPRLLIYGASTRATGIPDRFSGSGSGTDFTLTISRLEPEDFAVYFCQQYGGSPRYTFGQGTRLEIK
B7: TCN-527 (5086_C06) (antibody, V domains shown)
VH: QVQLQESGPGLVKPSETLSLNCAVSGGSISNYYWSWIRQPPGKGLEWIGYISYNGRPKYNPSLTSRVTISVDTSKDQFSLELRSVTAADTALYYCARETRFGELLSPYDAFEIWGQGTMVTVSS
VL: DIQMTQSPSSLSASVGDRVTMTCRASQNIRSYLNWYQQRPGTAPKLLIYAASTLHSGVPSRFSGGGSGTDFTLTINNLQPEDFASYYCQQSYDNPQTFGQGTKVEIK
B8: TCN-522 (3212_I12) (antibody, V domains shown)
VH: QVQLQQWGAGLLKPSETLSLTCTVSGGSLTDYSWNWIRQPPGKGLEWIGDTLHNGYTNYNPSLRGRVSISIDTSKNQVSLRLTSVTAADTALYYCARGSGGYGGFDYFGKLRTWDFWGQGTLVTVSS
VL: DIQLTQSPSSLSASVGDRVTITCRASQGIRNDLGWYQQKPGNAPKRLIFGASSLQSGVPSRFSGSGSGTEFTLTISSLQPEDFATYYCLQHNSYPYTFGQGTKLEIK
B9: TCN-528 (5087_P17) (antibody, V domains shown)
VH: QVQLVQSGSEVKKPGASVKVSCKASGYTFTNYDINWIRQAPGQGLEWMGWINPNSGTTGSAQRFQGRVTITVDTSITTVYMELSSLRSDDTAIYYCARGRELLRLQHFLTDSQSERRDCFDPWGQGTLVTVSS
VL: DIQMTQSPSSLSASVGDRVTITCRANQDIGIYLNWYQQNPGKVPKLLLHGASSLQGGVPSRFSASGSGTDFTLTIHSLQPEDLATYYCQQSRRLPYTFGQGTRVELK
B10: TCN-564 (5256_A17b) (antibody, V domains shown)
VH: QVQLVQSGADVKKPGSSVTVSCKASGGSFSNYGINWVRQAPGQGLEWMGGIIPLINAPNYAPKFQGRVTITADMFSNIVSLQLTSLRTDDTAVYYCARRKMTTAIDYWGQGTLVTVSS
VL: QPVLSQPPSASASLGASVTLTCTLSSGFDNYQVAWYQQRPGKGPRFVMRVGNGGNVASKGDGIPDRFSVSGSGLNRYLTIKNIQEDDESDYYCGADHGSGNNFVSPYVFGGGTKLTVL
B11: TCN-530 (5248_H10a) (antibody, V domains shown)
VH: QVQLVQSGAEVRKPGSSVKVSCKASGGPFMSYAIGWVRQAPGQGLEWMGGINPVFGRPHYAQKFQGRVTIATDDSTKTSYMELSSLTSEDTGMYYCASRYSRSSPGTFESWGQGTLVTVSS
VL: EIVMTQFPATLSVSPGERVTLSCRASQSVSNNLAWYQQKPGQPPRLLIYDASTRATGVPAKFSGTGSGTEFTLSISSLQSEDFAVYYCQQYHNWPPSYSFGLGTKLEIK
B12: TCN-555 (5246_L16) (antibody, V domains shown)
VH: QVQLVQSGAEVKRPGSSVKVSCTASGGIFRKNAISWVRQAPGQGLEWMGGIIAVFNTANYAQKFQNRVKITADESGNTAYMELSSLTSDDTAVYYCASHPKYFYGSGSYPDFWGQGTLVTVSS
VL: QSALTQPRSVSGSPGQSITISCTGGSSDIGASNSVSWYQQHPGKAPKLVIFDVTERPSGVPHRFSGSKSGNTASLTVSGLQPDDEADYFCCAYGGKYLVVFGGGTKVTVL
B13: TCN-531 (5091_H13) (antibody, V domains shown)
VH: EVQLVESGGDLVQPGRSLKLSCTGSGFTFGDYGVTWVRQAPGKGLEWVGFIRTRPWGGTADTAASVKGRFTISRDDSKSLAYLQMNSLKTEDTAVYYCCRDAPPNVEVASMTNWYFDLWGRGTLVTVSS
VL: DIQLTQSPSSLSASVGDRVTITCRASQGILNCLAWYQQKPGKVPNLLMYAASTLQSGVPSRFSGSGFGTDFTLTISSLQPEDVATYYCQTYGGVSTFGGGTKVEIR
B14: TCN-534 (5249_B02) (antibody, V domains shown)
VH: QVQLVQSGAEVKKPGSSVKVSCRESGGTFNGYTITWVRQAPGQGLEWMGGIIPMMGTVNYAQKLQGRVTITTDYFTKTAYMDLNNLRSEDTAMYYCVKIRYTGQQLLWGQGTLVTVSS
VL: DIQMTQSPSTLSASIGDRVTITCRASQSIASWLAWYQQKPGKAPKLLIYEAVNLESGVPSRFSGSGSGTDFTLTISSLQPDDFATYFCQHYGTISQTFGGGTKVEIK
B15: TCN-553 (5261_C18) (antibody, V domains shown)
VH: QVQVVQSGTEVKKPGSSVKVSCQTSGGRFMSYAITWVRQAPGQGLEWMGGIVPVFGTANYAQKFQGRVTITTDDSTRTAYMELSSLRSEDTAVYYCGFRYGSGYGFDSWGQGTLVTVSS
VL: EIVLTQSPGTLSLSPGERATLSCRASQSVSSSYLAWYQKKPGQAPRLLIYGASTRATGIPDRFTGSGSGTDFTLSISRLEPEDFAVYYCQHFGTSVFTFGGGTKVEIK
B16: TCN-535 (5246_P19) (antibody, V domains shown)
VH: QVQLVQSGSEVKKPGTSVKVSCTASGSVFTNYGISWVRQAPGQGLEWMGGIIPLFGAAKYAQKFQGRVTITADESTKTVYMELSRLTSKDTAIYFCAKAPRVYEYYFDQWGQGTPVTVSS
VL: EIVLTQSPGTLSLSPGERATLSCRASQSVSSSQLAWYQQKPGQAPRLIIYGASTRATGIPDRFSGSGSGTDFTLTIGRLEPEDFAVFFCQQYSTSPPTFGQGTKVDFK
B17: TCN-536 (5095_N01) (antibody, V domains shown)
VH: QVQLQQWGAGLLKPSETLSLTCAVYGGSFSVSGYYWSWIRQPPGRGLEWIGEISHGGSTNYNPSLKSRVTISVDTTKNQFSLRLSSVTAADTAVYYCARGTDPDTEVYCRVGNCAAFDYWGQGSLVTVSS
VL: EIILAQSPGTLSLSPGERATLSCRASQFVSTRSLAWYQQRPGQAPRLLIYGASSRATGIPDRFSGSGSGTDFTLTISRLEPEDFAVYYCQHYGYSPRYAFGQGSKVEIK

The binders below were run against T1, recombinant soluble homotrimeric HA of A/common magpie/Hong Kong/5052/07 (H5N1) (Influenza A virus A/common magpie/Hong Kong/5052/2007(H5N1)) (assay: trimeric HA microarray, transfection supernatant set 5). Settings: remark: other sources report otherwise.
For B1, the Trimeric HA Binding: RLU was 1920 RLU. Work on B2 yielded a Trimeric HA Binding: RLU of 1070 RLU. Work on B3 yielded a Trimeric HA Binding: RLU of 3140 RLU. B4 gave a Trimeric HA Binding: RLU of 2070 RLU. B5 showed a Trimeric HA Binding: RLU of 1800 RLU. Binder B6 has a Trimeric HA Binding: RLU of 1390 RLU.

Each binder was assayed against T1, recombinant soluble homotrimeric HA of … (assay: trimeric HA microarray, transfection supernatant set 2). Settings: remark: other sources report otherwise.
Work on B7 yielded a Trimeric HA Binding: RLU of 43800 RLU. B8 showed a Trimeric HA Binding: RLU of 21400 RLU. For B9, the Trimeric HA Binding: RLU was 45300 RLU.

The binders below were run against T1, recombinant soluble homotrimeric HA of … (assay: not given). Settings: remark: other sources report otherwise.
For B10, the Trimeric HA Binding: RLU was 20800 RLU.

The binders below were run against recombinant homotrimeric HA A/common magpie/Hong Kong/5052/07 H5N1 (Influenza A virus A/common magpie/Hong Kong/5052/2007(H5N1)) (assay: protein microarray, purified IgG, trimeric HA). Settings: remark: other sources report otherwise.
B7 showed a Trimeric HA Binding: RLU of 24600 RLU. In the case of B11, the Trimeric HA Binding: RLU is reported as 10300 RLU. With B1 the Trimeric HA Binding: RLU was 810 RLU. B12 gave a Trimeric HA Binding: RLU of 17000 RLU. Work on B13 yielded a Trimeric HA Binding: RLU of 674 RLU. Work on B2 yielded a Trimeric HA Binding: RLU of 679 RLU. B3 was tested, and the Trimeric HA Binding: RLU was 5140 RLU. Binder B14 has a Trimeric HA Binding: RLU of 16500 RLU. With B15 the Trimeric HA Binding: RLU was 22800 RLU. In the case of B16, the Trimeric HA Binding: RLU is reported as 20400 RLU. Work on B4 yielded a Trimeric HA Binding: RLU of 810 RLU. Binder B5 has a Trimeric HA Binding: RLU of 799 RLU. For B17, the Trimeric HA Binding: RLU was 794 RLU. B8 showed a Trimeric HA Binding: RLU of 15100 RLU. Work on B6 yielded a Trimeric HA Binding: RLU of 804 RLU. B9 was tested, and the Trimeric HA Binding: RLU was 25500 RLU.

These binders were tested against T1, recombinant soluble homotrimeric HA of … (assay: HA microarray, BCC supernatant). Settings: remark: other sources report otherwise.
Binder B11 has a Trimeric HA Binding: RLU of 42500 RLU. Binder B12 has a Trimeric HA Binding: RLU of 16100 RLU. Work on B3 yielded a Trimeric HA Binding: RLU of 18700 RLU. B14 showed a Trimeric HA Binding: RLU of 32500 RLU. B15 was tested, and the Trimeric HA Binding: RLU was 26000 RLU. With B16 the Trimeric HA Binding: RLU was 45900 RLU. B4 was tested, and the Trimeric HA Binding: RLU was 18700 RLU. For B5, the Trimeric HA Binding: RLU was 113 RLU.

These binders were tested against T1, recombinant soluble homotrimeric HA of … (assay: trimeric HA microarray, transfection supernatant set 3). Settings: remark: other sources report otherwise.
In the case of B11, the Trimeric HA Binding: RLU is reported as 5580 RLU. B13 gave a Trimeric HA Binding: RLU of 37 RLU.

Each binder was assayed against T1, recombinant soluble homotrimeric HA of … (assay: trimeric HA microarray, transfection supernatant set 4). Settings: remark: other sources report otherwise.
B14 showed a Trimeric HA Binding: RLU of 127 RLU. B16 was tested, and the Trimeric HA Binding: RLU was 477 RLU. With B17 the Trimeric HA Binding: RLU was 27 RLU.

Each binder was assayed against recombinant soluble homotrimeric HA, A/common magpie/Hong Kong/5052/07 H5N1 (Influenza A virus A/common magpie/Hong Kong/5052/2007(H5N1)) (assay: microarray, transfection SN IgG, trimeric HA). Settings: remark: other sources report otherwise.
For B12, the Trimeric HA Binding: RLU was 33600 RLU. For B15, the Trimeric HA Binding: RLU was 39200 RLU.
